Measured values published in the DeepSol protein solubility set.

test: soluble on expression in E. coli; label from the status in PepcDB or PDB records

Row | Sequence | soluble on expression in E. coli
1 | MGSDKIHHHHHHMKGGTSKFKTHTETLYKKKKWSSVSEKRPQKCPSQCLESKQPQVSVLGKRRRASQTPAQETLESEWPQKAKRKKRRREPQTPAQETLESEWPQKAKKKKRRGEPQTPTQESLESEQPPVSLLGKRRRESQTPAQENSESEQPRKAKRRRKKRKGSQQPTSSLLKTPETFLKAKKTTSAHKKKKNSVLEVDMETGIILVDKENMENLLETSRKDVDIVYVDMSKGQRSAKVRETGELPAAKPQEHGCRELLGDVRSRKKQKHLQKVAPWDVVQGSQPESISLPPSEPLSSEDLEGKSTEAAVFCKKKSKKNVFRSQELEPIPDSLDDSETISERLDSTHHGGAVGAGEECESTKESHSIKKKSKKKKHKSVALATSSDSASVTDSKAKNALVDSSEGSGAVREEDVDHRPAEAEAQACSTEKHREAMQRLEPTHEEESNSESASNSAARHISEDRRESDDSDVDLGSAVRQLREFIPDIQERAATTIRRMYRDDLGRFKEFKAQGVAIRFGKFSAKENKQIEKNVQDFLSLTGIESADKLLYTDRYPEEKTLITNLKRKHAFRLHIGKGIARPWKLVYYRAKKIFDVNNYKGRYNEEDTKKLKAYHSLHGNDWKKIGAMVARSSLSVALKFSQIGGTRNQGAWSKAETQRLIKAVEDVILKKMSPQELRELDSKLQEDPEGRLSIVREKLYKGISWVEVEARVETRNWMQCKSKWTEILTKRMTHGGFVYRGVNALQAKITLIERLYELNVNDANEIDWEDLASAIGDVPPPFVQAKFYKLKAACVPFWQKKTFPEIIDYLYKNSLPLLKEKLDKKMKKKDGQIQTPAAPKQDFLFKDIFHCDDDSDEGSPEEPSASDVQ | not soluble
2 | SNAMTIRFADKADCAAITEIYNHAVLHTAAIWNDRTVDTDNRLAWYEARQLLGYPVLVSEENGVVTGYASFGDWRSFDGFRYTVEHSVYVHPAHQGKGLGRKLLSRLIDEARRCGKHVMVAGIESQNAASIRLHHSLGFTVTAQMPQVGVKFGRWLDLTFMQLQLDEHAAPDAC | soluble
3 | MEERTLVILGATGSIGTQTLDVLKKVKGIRLIGISFHSNLELAFKIVKEFNVKNVAITGDVEFEDSSINVWKGSHSIEEMLEALKPDITMVAVSGFSGLRAVLASLEHSKRVCLANKESLVCGGFLVKKKLKEKGTELIPVDSEHSAIFQVMEPEVEKVVLTASGGALRDWKISKIDRARPEDVLKHPVWNMGARITVDSATMVNKAFEVLEAMELFELPFEKIEVKIHREGLVHGAVVLPDGNVKMVVSPPDMRIPISYALFYPRRVALEPFFLRTISLSFEDPDPEKYPAFFLLKEIKDSYALRTAFNAADEVAVEAFLKGRIRFGGIHRVIEKTLEEFQGYPQPRTLDDVERIHFEAIKKAERVTEWLSSTSY | soluble
4 | SLMVPVEIRWQQGGSKVYVTGSFTKWRKMIGLIPDSDNNGSFHVKLRLLPGTHRFRFIVDNELRVSDFLPTATDQMGNFVNYIEVRQPEKNPTNEKIRSKEADSMRPPTSDRSSIALQIGKDPDDFGDGYTRFHEDLSPRPPLEYTTDIPAVFTDPSVMERYYYTLDRQQSNTDTSWLTPPQLPPQLENVILNKYYATQDQFNENNSGALPIPNHVVLNHLVTSSIKHNTLCVASIVRYKQKYVTQILYTPI | soluble
5 | MGWQTLKQQSVPARKRLLYLHIPFCATHCTFCGFYQNKLRDDSTATYTRYLLQELAMEADSPLHQSAPIHAVYFGGGTPTALAADELSQIIRAIRTSLPLAPDCEITVEGRAMDFDDERIDACLDAGANRFSIGIQTFDTRIRQRMARTSDKQQSIRFLERLCGRDRAAVVCDLMFGLPGQTPEIWREDLAIVSDLPLDGVDLYALNLLPTTPLAKAAENQRVALPDVVARRDFYRTGAAFLADSGWHQLSNSHWARTTRERNLYNLLIKQGADCLAMGSGAGGNINGQAYMMERSLERYYQQIDQGQKPIMMMTPASSTGPWQHQLQAGIEVGRIKLPQLTQHARELQPLLSQWHQAGLTCDDSTCLRLTNDGRFWANNLMQALQQIIPQLNAEEHAHLEHHHHHH | not soluble
6 | RETFNYMLPGAGVRGAAMARTAGRWGERVVSHNATFKLLTDLRIFFFKKLAPLIPGRVSTMRDADLLNRLVADVDAMDHVYLR | not soluble
7 | MGSDKIHHHHHHMNHLNDKVNEIKDNFYGLIGHAYLEKYITKPIVDEDKLRFLYTMLAEKLPKKDTKLFTLSALLVDAALEIHEAVSLHNIQTDPIKKNRQLNVLAGDYYSSLYYYLLADSRHLPIIQVFSHSIQEINEYKMKLYDGKNIDFDEVKNNVDKVDTFLLQNLAEHFQLTTWKKAISVFFHLKRLVHEREAWINGKATPLMKAIVTELFGSNRPVDELKKDDQLQVLELWEEKVEEGKDHLLEHVKALLPKFERFFVDHLNDLFGPDYIHEKVAEEG | not soluble
8 | AFSSTTTLTPSNVASREFIDTRAPNPEICVQYGASAMVMDARLFVTLNPFNVYVAQPNIRPGCVLRQNNWAILENKKLVTSDQVRECKNRLNTFGFTGNLDSEKPDIRCIYQNESAQNFFLSQPGAVGPSQDTERF | not soluble
9 | MLSKISESLANLSGAERKVAECALAEPKWFVHAAVAEIAERASVSQPTVIRFCRSLGYKGLPEFKLALSASIGHEGMPYVHEELNADDDMASVVEKVLGNAAASL | not soluble
10 | MTATPLYCAEPARLDTARRLCERFSLPLIKQRPADGYWLELGSERLELLTTGKHGAVYAEFVEGAARHRREQGGGRGQPVAKAVGLKGAKDLPHVADATAGLGRDSFVLATLGCRVTMVERSPVAAALLADALERAQRDETTRDIAARMTLVHANSRNWLAGLTEAQRPDVVFVDPMFPDTDKKSAAAKKDMQAFQQVIGDDMDSAELLAAAIAAARVRVVVKRPRLGAAIAGVKPSAVLDGKSTRFDLYVIKALASGLEHHHHHH | soluble
11 | MGSDKIHHHHHHMVVRGRLKGVEAEFIDFHVHMPYWIRDPVKSCRRLLLEELTAGAISAVVIGVDASLETIKSRVTPREITEAAMEDFDYLAFQQVGYIGRMIMEPEKFLDDFLGDFHKHRRGPEDLRACRSVEPRFFYTIVSYKPGMEEEVAQIVRSDSSILGVKIFPTFHFTRPDSQRLYPVYKAVEEAGGLVVVHTGCDPGPWELTRFCREARPSYVARAAKRFENLVFVIAHLGAYSALKPGIYFEETLKALSLENVYADTSAADPFFAAMAVKEGYADKILFGSDYPYVSGYNVAMAVKDILSLDIDNNDKEAVLRYNAEKLLNSLPRGRQKPG | not soluble
12 | MSLSEAVERQTLTIANSKAWKPYSYLDEQGQPSGILIDFWLAFGEANHVDIEFQLMDWNDSLEAVKLGKSDVQAGLIRSASRLAYLDFAEPLLTIDTQLYVHRTLLGDKLDTLLSGAINVSLGVVKGGFEQEFMQREYPQLKLIEYANNELMMSAAKRRELDGFVADTQVANFYIVVSNGAKDFTPVKFLYSEELRPAVAKGNRDLLEQVEQGFAQLSSNEKNRILSRWVHIETIYPRYLMEGHHHHHH | soluble
13 | MSLVAVRSAHLNPDQQFELETWIASLTQEGKTAAKLTAVYRDCEQLLAGNPQGPLLLWRGREMIEILITLSMDRPTLVAALLFPIATSGVLDNESLEEGYGREVVKLIHGVEEMAAIGQLNVTMHGSEASAQVDNVRRMLLAMVDDFRCVVIKLAERICNLREVKNEPDEVRRVAAKECANIYAPLANRLGIGQLKWEIEDYAFRYQQPDTYKQIAKQLSERRIVREQYIRDFVSDLRAEMKQSGINAEVSGRPKHIYSIWRKMQKKSLAFDELFDVRAVRIIADKLQDCYAALGIVHTKYKHLPNEFDDYVANPKPNGYQSIHTVILGPEGKTIEIQIRTKQMHEESELGVAAHWKYKEGSSAARSGYDEKITWLRKLLDWQEEMSDSGEMLDELRSQVFDDRVYAFTPKGDVVDLPMGATPLDFAYHIHSEVGHRCIGAKVAGRIVPFTHKLQMGDQVEIITAKEPNPSRDWLNPSLGFVHSGRARAKINAWFRKQSREKNLEAGREILEIELAKIGANLKHAEAYALKRFNVNSVDEMYVGIGSGDLRINQIVNHINALVNKPTAEEEDKLALEKLQENKTLTPNRPHKDAVVVEGVDNLMTHLARCCQPIPGDEIRGYITQGRGISVHRSDCEQLEELSLHAPERIIDTVWGSGFVGSYLLTVRVEAMERSGLLKDITTLLANEKVKVASMKSRSDYKRQIIIMDFDLEVNNVEALARVSKRIEQIKDVMLVKRLGEGHHHHHH | not soluble
14 | MGHHHHHHSHHPFVRSAKGVSILRDLINEAMDVKLKRQESQQREVDQDDEENSEEDEMDSGTMVRAVGDEMGTVRVASTMTDGANTMIEHDDTLPSQLGTMVINAEDEEEEGTMKRRDETMQPAKPSFLEYFEQKEKENQINSFGKSVPGPLKNSSDWKIPQDGDYEFLKSWTVEDLQKRLLALDPMMEQEIEEIRQKYQSKRQPILDAIEAKKRRQQNF | soluble
15 | SMPKDVGILALEVYFPAQYVDQTDLEKYNNVEAGKYTVGLGQTRMGFCSVQEDINSLCLTVVQRLMERIQLPWDSVGRLEVGTETIIDKSKAVKTVLMELFQDSGNTDIEGIDTTNACYGGTASLFNAANWMESSSWDGRYAMVVCGDIAVYPSGNARPTGGAGAVAMLIGPKAPLALERGLRGTHMENVYDFYKPNLASEYPIVDGKLSIQCYLRALDRCYTSYRKKIQNQWKQAGSDRPFTLDDLQYMIFHTPFCKMVQKSLARLMFNDFLSASSDTQTSLYKGLEAFGGLKLEDTYTNKDLDKALLKASQDMFDKKTKASLYLSTHNGNMYTSSLYGCLASLLSHHSAQELAGSRIGAFSYGSGLAASFFSFRVSQDAAPGSPLDKLVSSTSDLPKRLASRKCVSPEEFTEIMNQREQFYHKVNFSPPGDTNSLFPGTWYLERVDEQHRRKYARRPV | soluble
16 | MVGSLNCIVAVSQNMGIGKNGDLPWPPLRNEFRYFSRMTTTSSVEGKQNLVIMGKKTWFSIPEKFRPLKGRINLVLSRELKEPPQGAHFLSRSLDDALKLTEQPELANKVDMVWIVGGSSVYKEAMNHPGHLKLFVTRIMQDFESDTFFPEIDLEKYKLLPEYPGVLSDVQEEKGIKYKFEVYEKND | soluble
17 | MIEIESLSRKWKNFSLDNLSLKVESGEYFVILGPTGAGKTLFLELIAGFHVPDSGRILLDGKDVTDLSPEKHDIAFVYQNYSLFPHMNVKKNLEFGMRMKKIKDPKRVLDTARDLKIEHLLDRNPLTLSGGEQQRVALARALVTNPKILLLDEPLSALDPRTQENAREMLSVLHKKNKLTVLHITHDQTEARIMADRIAVVMDGKLIQVGKPEEIFEKPVEGRVASFVGFENVLKGRVISAEQGLLRIRVGEVVIDAAGDMEVGDQVYAFLRPENIALSKSSTQSSIRNSLQGRVTEAWVLGALVRVKVDCGVPLNVLITRRSAEEMELSPGVQIYARFKASSVHVLR | soluble
18 | MGSDKIHHHHHHMKPHTLLIVDDDDTVAEMLELVLRGAGYEVRRAASGEEALQQIYKNLPDALICDVLLPGIDGYTLCKRVRQHPLTKTLPILMLTAQGDISAKIAGFEAGANDYLAKPFEPQELVYRVKNILARTTIETPTTPVQRGKVITVFGAKGGVGKTTIAVSVALALRLRSRRRVVIVDADLTFGDVAVHLNIAPTRSIIDIVRSGDEIEQEMVKQVLLSHPSGLQALLAPPRPEEAELVSAEHMTRILDLLAVNADYVVVDCQTSYDDRTLSVFDRTDHVLLVITPEIGPLKNTSLFLSLANQLGIDPRAISIVLNRSNSGVGIGVNEIERVLRRKINYHVMSGGQPVVTAVNRGTPLILEQPKHPFVQQILYLADQMMKQLDTNQNVQTDTVTR | not soluble
19 | MQAHQSLHPSSAYLLDPRDTHHFIRKPTISMETTTEIPAGGATSLLPIVRAAKTPPIPLTVPCAIAGVMMEFECLLRGKRMLVNAMVYNVKTTIAGHPWE | not soluble
